Measured values: a protein production outcome set (Wang et al. 2014)

Assay: label from the status in PepcDB records

Sequence | protein production
MRLVEIGRFGAPYALKGGLRFRGEPVVLHLERVYVEGHGWRAIEDLYRVGEELVVHLAGVTDRTLAEALVGLRVYAEVADLPPLEEGRYYYFALIGLPVYVEGRQVGEVVDILDAGAQDVLIIRGVGERLRDRAERLVPLQAPYVRVEEGSIHVDPIPGLFD | not failed
MSLSLYDSAHSLDGKSGWDTPVFSMKDSMDRNPMVTEAWEALCQSQVYFRGKPVGTIAAYDHASEEVLNYDQVFVRDFVPSALAFLMNGEPEIVKNFLLKTLHIQGQDKMIDKFKLGDGAMPASFKVLHNPIKKTDTIIADFGESAIGRVAPVDSGFWWIILLRAYTKSTGDHSLAERPECQKGMRLILSLCLSEGFDTFPTLLCADGCSMVDRRMGIYGYPIEIQALFFMALRSALSMLKHDSEGKEFMEKIVKRLHALSFHMRSYFWLDFQQLNDIYRYKTEEYSHTAVNKFNVIPDSIPDWIFDFMPLRGGYFVGNVSPARMDFRWFALGNCIAILSSLATPEQSMAIMDLIEARWEELVGEMPLKICYPAMESHEWGIVTGCDPKNTRWSYHNGGSWPVLLWLLTAASIKTGRPQIARRAIELAEARLLKDGWPEYYDGKSGRFIGKQARKSQTWSIAGYLVAKMMMDDPTHVGMISMEEEKHMKPPLRRSSSWT | failed
MDKHHSKKAILKLTLITTSILLMHSNQVNAEEQELKNQEQSPVIANVAQQPSPSVTTNTVEKTSVTAASASNTAKEMGDTSVKNDKTEDELLEELSKNLDTSNLGADLEEEYPSKPETTNNKESNVVTNASTAIAQKVPSAYEEVKPESKSSLAVLDTSKITKLQAITQRGKGNVVAIIDTGFDINHDIFRLDSPKDDKHSFKTKTEFEELKAKHNITYGKWVNDKIVFAHNYANNTETVADIAAAMKDGYGSEAKNISHGTHVAGIFVGNSKRPAINGLLLEGAAPNAQVLLMRIPDKIDSDKFGEAYAKAITDAVNLGAKTINMSIGKTADSLIALNDKVKLALKLASEKGVAVVVAAGNEGAFGMDYSKPLSTNPDYGTVNSPAISEDTLSVASYESLKTISEVVETTIEGKLVKLPIVTSKPFDKGKAYDVVYANYGAKKDFEGKDFKGKIALIERGGGLDFMTKITHATNAGVVGIVIFNDQEKRGNFLIPYRELPVGIISKVDGERIKNTSSQLTFNQSFEVVDSQGGNRMLEQSSWGVTAEGAIKPDVTASGFEIYSSTYNNQYQTMSGTSMASPHVAGLMTMLQSHLAEKYKGMNLDSKKLLELSKNILMSSATALYSEEDKAFYSPRQQGAGVVDAEKAIQAQYYITGNDGKAKINLKRMGDKFDITVTIHKLVEGVKELYYQANVATEQVNKGKFALKPQALLDTNWQKVILRDKETQVRFTIDASQFSQKLKEQMANGYFLEGFVRFKEAKDSNQELMSIPFVGFNGDFANLQALETPIYKTLSKGSFYYKPNDTTHKDQLEYNESAPFESNNYTALLTQSASWGYVDYVKNGGELELAPESPKRIILGTFENKVEDKTIHLLERDAANNPYFAISPNKDGNRDEITPQATFLRNVKDISAQVLDQNGNVIWQSKVLPSYRKNFHNNPKQSDGHYRMDALQWSGLDKDGKVVADGFYTYRLRYTPVAEGANSQESDFKVQVSTKSPNLPSRAQFDETNRTLSLAMPKESSYVPTYRLQLVLSHVVKDEEYGDETSYHYFHIDQEGKVTLPKTVKIGESEVAVDPKALTLVVEDKAGNFATVKLSDLLNKAVVSEKENAIVISNSFKYFDNLKKEPMFISKKEKVVNKNLEEIILVKPQTTVTTQSLSKEITKSGNEKVLTSTNNNSSRVAKIISPKHNGDSVNHTLPSTSDRATNGLFVGTLALLSSLLLYLKPKKTKNNSK | failed
MITTKLKLSVTNDYLLRINENRYVLIDTGYKEDWKLFLKRLKENGIKINEISYVILTHHHDDHVGFLNKLVSENKDIRVVMSDKTNELIKVGENDQTHGGGLINKRIEFLIRYKNMYVSKVLGVKKENNLKFPPYESRNNDIIFTGEVTLRELGIDLPGKIIETPGHTIDSISILFEDGDCFVGDAAANMLKLCGTKNCVIFIMDKKQYYESWDKMIKVGVKKVYPAHGGEFSVGRLKKNIWRNL | failed
MNGVELTLTGAEVLLPGGPARRDLCLSGGQVVDAPAGRQVDLSGYLVLPGIVDLHGDGFERHMAPRRGAMKEMGEGVVAAEAELAANGITTAVLAQFWSWEGGLRGPDFAAGVFQAIRQVQGSLVTDLIPQLRFETHLLEDYAALPDRLAEWQVPYVVFNDHLPHDRLAEGRKPPRLAGQALKAGRSPEAHLALLQALHANGPQVPAALDKLCAELHRRGVRMGSHDDHSAEDCATGQGRGLTISEFPETLEAAEATRASGGHVILGSPNVVRGGSHKGNVSALDLITMGLCDALASDYHYPSPRRAALMLVRTGLLDLAAAWALVSSGPARVLGLDDRGELAPGKRADLVILDAQSHRVAATFAAGRVSYMSGDVATRFLA | failed
IHYAGKILQERLVNPPSLMELAREIGINDHKLKVGFRQVFKTTVFGYLHDQRIERSRQLLESGEMTVTGAASAVGFANRGHFAAAFRRKFGINPSLYARQRKL | failed
MKVYLHFSPQFFANTYLIGNEITKEAVIIDPAKITEKMIHQIEKNEFNLKAVLLTHDLEHPYETGLNTILKIYSPKVYAGSCFSENVTINTLRGDGCIDVAGYSVRYFAIPAHSSYSYMFQIENMVFTGTSLSAGMIGQTSNMYAERTLRNILKTKLMCFEDNLIIMPFYGPPTSIGVERKYNASFFQDLEHHHHHH | failed
MKTTPDILDQIRVHGADAYPEEGCGFLLGTVTDDGDNRVAALHRATNRRSEQRTRRYELTADDYRAADAAAQEQGLDVVGVYHSHPDHPARPSATDLEEATFPGFTYVIVSVRDGAPEALTAWALAPDRSEFHREDIVRPDPEAPLEHHHHHH | failed
MRNGRLLEACDDIPEEDIPSRRYEASMCYLRGLCYAKQNAFDRAKEAYKDALRIDVQCFEAFSQLVKNSLMSPDEEDEFMQSLAFDSIRAPGDDPDMEDEPADYVHMLYQTQLSKYRNPQAFNTAIESLSTHYGLENNADILLAKADLLYTQCRFKDALAITESILMDDKYNFAVYPIHLACLYELRKTNVLFLIAHELADTHPDEPCTWLAVGIYYFTTGKIADARRYFSKASMMDANFGPAWIGFAHTFAAEGEHDQAVTAYSTAARLFTGTHLPQVFLGMQNHAMNNMTAAEEFLKTAYSLCKTDPLLLNEMGIVLYHQDRLKEAVKMFDQVMAFGTAEMSRASEKRRMETMLSKLLQSLRPSTTSAIFSRRSTILPL | failed
SSAQFDHVTVIKKSNVYFGGLCISHTVQFEDGTKKTLGVILPTEQPLTFETHVPERMEIISGECRVKIADSTESELFRAGQSFYVPGNSLFKIETDEVLDYVCHLE | failed
MDVGSFGFTIAGLVVGFIVGMTGVGGGSLMTPILLWFGIHPATAVGTDLLYAAITKASGVWVHARNKNIDWKITGLLSLGSVPAAALTLWFLSTLHTDTSALNAIIKQGLAVVLILTALAILFKSRLQAFASRHAGDHYHLSDRSLNILTVLTGVVLGIMVTLTSIGAGALGTVALFLLYPFLVTRRLVGTEIAHAVPLTLVAGLGHAGMGNMDWSLLGYLLLGSLPGIYLGSHLTGRISDRVLRPCLATMLLLIGYKLAF | failed
MRISAWLLCSLSFIAPLSWAESSPADIAAQKQQQILFFNHDDRDIVPDTAVWPWQAIGQLETASGNLCTATLISPHLALTAGHCVVTPPKGEIDNPVALRFLATENGWRYETTEIEALANKTLAKKLKADGEGWIVPPSAAPLDYALIRLKQTPPGIRPLPLWQGSRQELMQALKDNGQRVTQAGYPEDHQETLYRHQDCLITGWVHAAVMAHQCDTLPGDSGSPLMLNSAAGWVLMGIQSSAPDASERDRADNRAVSVTAIRQQLETLAKLSSPKPGSPKLSPK | failed
MNFRTGQPSDAAALAAISIEVWLGTYMRKGVSAFFAEYALNEFTSTKMASLLKDPNEHVIVSENEGGIDAFIRLGQGRAAPVSGCSTLEIATLYVQPRHHRRGLGRALLEQGLAYARQASAPSVWLTTNSENAPAIAFYLEQGFEKVGTTHFNIGDQ | not failed
MKSTFSVLFFVKKDKQKINGSYPIFVRITIDGVASRFNSKLDVQPKLWDGKAGKAAGRSAEATRINRLLDDINASLNTIYHELQRRDNYVTAEKVKNEFLGHSENHDTILNLFQKHNDDVKQLVGISKTIATYRKYEVTRRHLAEFIQSKYNLSDISIKEITPMFITDFELYLRTTCKCGYNTTAKFMQFFKRIILIARNNGILIGDPFANYKIRLEKVDRGYLTEDEIKIILKKKMVSERLEQVRDVFIFSCFSGLAYVDVANLKEDNIRKSFDGNLWIITKRQKTNTDVNVPLLDIPKMILEKYKGKLPNGKVLPIISNQK | not failed
CLEDILSATKMVINLCLPQFRPRIHCNKISADGYEVENLISEDLTKRSHGFRTEYFIKPPVYVTVSFPFNVEICRINIDLTAGGGQNVTGLEMYTSASSSRVSWNTPQCRTLGPAEPSVPDKEAFTLVGKVLLKNQSQVVFSHRGFKARPPFGAMEATLPSPAVVAQELWNKGALSLSHVAHLRICITHVTGGGIPCIKRLEVWGQPAKTCSQEVIDSILLVTSENLPQDVALQAPALPMESDCDPGDQPESQQAPSSLQKLAEIIQDVPEEFLDPITLEIMPCPMLLPSGKVIDQSTLEKCNRSEATWGRVPSDPFTGVAFTPHSQPLPHPSLKARIDHFLLQHSIPGCHLLGRAQTALAVIPSSIVLPSQKRKIEQAEHVPDSNFGVNASCFSATSPLVLPTTSEHTAKKMKATNEPSLTHMDCSTGPLSHEQKLSQSLEIALASTLGSMPSFTARLTRGQLQHLGTRGSNTSWRPGTGSEQPGSILGPECASCKRVFSPYFKKEPVYQLPCGHLLCRPCLGEKQRSLPMTCTACQRPVASQDVLRVHF | not failed
ATGTTGGGCATGATCAGGAACTCACTGTTCGGGAGCGTGGAAACGTGGCCTTGGCAGGTTCTAAGCACCGGGGGCAAGGAAGATGTCTCCTATGAGGAAAGAGCCTGTGAAGGGGGCAAGTTTGCTACTGNGGAAGTGACAGACAAGCCAGTGGATGAGGCTCTCCGGGAAGCGATGCCCAAGATCATGAAGTATGTGGGTGGCACCAATGACAAAGGAGTCGGCATGGGTATGACAGTCCCTGTCTCTTTTGCCGTGTTTCCCAATGAAGATGGCTCCCTACAGAAGAAACTGAAAGTCTGGTTCCGGATTCCGAACCAATTTCAAGGCAGCCCACCGGCCCCCAGTGACGAGAGTGTGAAGATCGAGGAACGGGAGGGCATCACTGTCTATTCCACGCAATTTGGAGGCTATGCCAAGGAAGCAGACTATGTTGCTCATGCCACCCAGCTACGGACCACACTGGAGGGCACACCAGCGACCTACCAGGGTGATGTCTACTACTGTGCCGGATATGACCCTCCCATGAAGCCCTATGGACGCCGTAACGAGGTCTGGCTTGTGAAGGCATGA | not failed
MNLPHLMSLASHLASHGFFCLRFTCKGLNIVHRIKAYKSVLNYLKTSGEYKLAGVFLGGRSMGSRAAASVMCHIEPDDGDDFVRGLICISYPLHHPKQQHKLRDEDLFRLKEPVLFVSGSADEMCEKNLLEKVAQKMQAPHKIHWIEKANHSMAVKGRSTNDVFKEINTQILFWIQEITEMDKKCH | failed
MTKFKGIIYASLGAAFFGISSIIAGLLFNRCSIEPGWLVTTRMLFSGLLLLAWLAITKHNIFSVWSSVKSSLRIVAFGIFGVLFAQSSFLLSVYYGNAAIATILQSLGPSIIIIILAIKSKAIPRRLDIIAIFLSLIGVFLLVTNGNIGELSFSASALVWGLLSALGVCAYTLIPCPLIKEHPPLSLVAWALLIGGVISNFLHPVTNLPKNFDQTDLLLVSLIVVVGTLLAYSLYINSLKYTEPHIVGMLGMLEPVTAILISTLFLGVSFLGFQQLGIFVVFLSLFLINFPAKKK | failed
MFLVLCSVMIFIGFLLQIYVWPRIPKSIFKYRGLVLSISLIILIFVVRIPLEITALTLPFYLMMFFGLFLFWKDRKL | failed
